# Laboratory results: article PMC4453530
# T1: DDK/Myc tag peptide
# T1 chain: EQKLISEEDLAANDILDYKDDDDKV
# B1: F2.2L (TGEV GAIT-like RNA motif) (structured_RNA)
# RNA: AAUCUUAAAACUGUCAAUGACUUUAAUAUCUU
# Experiments:
# [1] = target: T1, DDK/Myc tag peptide; assay: EMSA
# [2] = target: EPRS purified recombinant (UniProt P07814 1-1512); assay: EMSA
# Chain of EPRS purified recombinant (P07814 whole entry): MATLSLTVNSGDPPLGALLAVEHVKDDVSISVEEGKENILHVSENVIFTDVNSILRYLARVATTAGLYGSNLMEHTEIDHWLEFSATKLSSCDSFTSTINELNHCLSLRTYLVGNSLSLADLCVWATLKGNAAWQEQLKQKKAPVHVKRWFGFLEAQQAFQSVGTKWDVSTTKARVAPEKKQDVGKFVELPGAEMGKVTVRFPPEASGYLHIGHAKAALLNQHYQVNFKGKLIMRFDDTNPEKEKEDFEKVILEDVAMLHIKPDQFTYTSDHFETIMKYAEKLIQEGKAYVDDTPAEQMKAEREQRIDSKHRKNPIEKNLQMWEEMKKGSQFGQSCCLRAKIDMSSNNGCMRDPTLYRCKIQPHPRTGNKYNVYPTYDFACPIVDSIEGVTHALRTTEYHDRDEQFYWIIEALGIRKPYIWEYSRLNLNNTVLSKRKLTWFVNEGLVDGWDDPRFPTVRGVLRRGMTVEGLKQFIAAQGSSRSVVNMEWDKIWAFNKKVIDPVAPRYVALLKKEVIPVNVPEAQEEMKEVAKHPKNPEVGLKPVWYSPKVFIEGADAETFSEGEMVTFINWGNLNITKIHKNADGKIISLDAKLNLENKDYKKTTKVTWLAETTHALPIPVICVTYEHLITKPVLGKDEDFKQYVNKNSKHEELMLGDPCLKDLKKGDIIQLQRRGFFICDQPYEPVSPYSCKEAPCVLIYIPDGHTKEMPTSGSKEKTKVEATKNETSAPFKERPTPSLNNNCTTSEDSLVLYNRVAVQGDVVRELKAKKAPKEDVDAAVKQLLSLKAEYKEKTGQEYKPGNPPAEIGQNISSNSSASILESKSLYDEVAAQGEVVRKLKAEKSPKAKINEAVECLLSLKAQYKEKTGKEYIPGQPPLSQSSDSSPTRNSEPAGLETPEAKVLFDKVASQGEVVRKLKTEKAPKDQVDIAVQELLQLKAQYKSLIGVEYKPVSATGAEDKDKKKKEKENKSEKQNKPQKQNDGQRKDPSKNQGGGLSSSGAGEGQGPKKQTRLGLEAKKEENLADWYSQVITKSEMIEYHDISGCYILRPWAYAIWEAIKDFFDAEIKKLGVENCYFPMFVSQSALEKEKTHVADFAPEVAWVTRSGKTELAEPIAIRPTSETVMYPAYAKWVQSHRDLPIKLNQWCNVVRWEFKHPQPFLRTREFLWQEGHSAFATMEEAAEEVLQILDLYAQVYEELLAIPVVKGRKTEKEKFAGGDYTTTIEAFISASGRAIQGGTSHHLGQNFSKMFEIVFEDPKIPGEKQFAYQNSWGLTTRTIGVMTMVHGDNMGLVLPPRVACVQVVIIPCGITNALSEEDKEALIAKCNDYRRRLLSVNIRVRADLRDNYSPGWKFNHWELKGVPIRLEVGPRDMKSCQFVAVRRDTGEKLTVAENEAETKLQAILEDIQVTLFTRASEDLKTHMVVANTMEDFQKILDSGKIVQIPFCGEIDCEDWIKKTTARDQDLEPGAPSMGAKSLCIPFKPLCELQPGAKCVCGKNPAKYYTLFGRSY
binder,measurement,setting,value
B1,binding result,[1],no binding
same,binding result,[2],binds
